According to patent publication US20260008852A1 (CRYSTAL BIOSCIENCE, published 2026):

T1: his-tagged B7-H3 (UniProt Q5ZPR3-2 29-245, limits assumed)
T1 construct: also called CD276; not shown: His tag
T1 sequence (looked up): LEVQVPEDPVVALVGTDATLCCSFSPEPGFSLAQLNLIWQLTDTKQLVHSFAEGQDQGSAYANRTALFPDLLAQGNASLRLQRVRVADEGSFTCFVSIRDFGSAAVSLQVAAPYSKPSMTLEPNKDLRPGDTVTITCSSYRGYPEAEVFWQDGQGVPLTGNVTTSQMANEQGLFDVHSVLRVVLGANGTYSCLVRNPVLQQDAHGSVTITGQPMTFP


What follows are binders tested against T1, his-tagged B7-H3 (assay: SPR, Carterra LSA; binder captured by anti-human Fc, his-tagged B7-H3 injected).
Method: Binding affinities of anti-B7-H3 antibodies to B7-H3 were measured by Surface Plasmon Resonance (SPR) on a Carterra LSA instrument. Goat anti-human Fc antibody was amine coupled to a HC30M chip. ScFv-Fc supernatants were diluted 30-fold with HBSTE and were captured by the anti-human Fc coupled HC30M chip. A 1:2 dilution series of his-tagged B7-H3, starting at 400 nM, was injected onto the chip for binding. Data was analyzed using the Carterra TM Kinetics software.

Kd [nM]	koff [s⁻¹]	kon [M⁻¹ s⁻¹]	Binder
20.2	0.01	349000	40633p1.1.B12 scFv-Fc (scFv, V domains shown) VH: EVQLLESGGGLLQPGGSLRLSCAASGFSFSSYGMHWVRQAPGKGLEWVAAINSDGSRIYYADSVKGRFTISRDNSKNTLYLQMNSLRAEDTAVYYCTKYYYHYAMDVWGQGTTVTVSS VL: QSVLTQPPSASGTPGQRVTISCSGSRSDIGATTVNWYQQLPGTAPKLLTYQSHLRPSGVPDRFSGSKSGTSASLAISGLQSEDEADYYCASWDASLNTWVFGGGTKLTVL
1.44	–	422000	40633p1.2.A10 scFv-Fc (scFv, V domains shown, Tested as scFv-Fc supernatant) VH: EVQLLESGGGLVQPGGSLRLSCAASGFTVSYYGMSWVRQAPGKGLEWVSVIKQDGSEEYYADSVKGRFTISRDNSKNTLYLQMNSLRAEDTAVYYCARHWNDYSNGMNVWGQGTTVTVSS VL: QSVLTQPPSASGTPGQRVTISCSGSTSNVGDRYVYWYQQLPGTAPKLLIYLDDQRPSGVPDRFSGSKSGTSASLAISGLQSEDEADYYCASWDASLNGWVFGGGTKLTVL
> 400	0.65	2030	40633p1.1.E3 scFv-Fc (scFv, V domains shown, Tested as scFv-Fc supernatant) VH: EVQLLESGGGLVQPGGSLRLSCAASGFTVSYYGMSWVRQAPGKGLEWVSAIKQDGSEKYYADSVKGRFTISRDNSKNTLYLQMNSLRAEDTAVYYCARHWNDYSNAMNVWGQGTTVTVSS VL: not shown
27.6	0.01	307000	40633p1.2.F3 scFv-Fc (scFv, V domains shown, Tested as scFv-Fc supernatant) VH: EVQLLESGGGLVQPGGSLRLSCAASGFTVSYYGMSWVRQAPGKGLEWVSVIKQDGSEEYYADSVKGRFTISRDNSKNTLYLQMNSLRAEDTAVYYCARHWNDYSNGMNVWGQGTTVTVSS VL: not shown
3.62	–	371000	40633p1.1.A7 scFv-Fc (scFv, V domains shown, Tested as scFv-Fc supernatant) VH: EVQLLESGGGLVQPGGSLRLSCAASGFTVSYYGMSWVRQAPGKGLEWVSAIKQDGSEKYYADSVKGRFTISRDNSKNTLYLQMNSLRAEDTAVYYCARHWNDYSNAMNVWGQGTTVTVSS VL: QSVLTQPPSASGTPGQRVTISCSGSTSNIGRESVYWYQQLPGTAPKLLIYTIDQRPSGVPDRFSGSKSGTSASLAISGLQSEDEAVYYCASWDASLNGWVFGGGTKLTVL
1.48	–	434000	40633p1.1.G11 scFv-Fc (scFv, V domains shown, Tested as scFv-Fc supernatant) VH: EVQLLESGGGLVQPGGSLRLSCAASGFTVSYYGMSWVRQAPGKGLEWVSVIKQDGSEEYYADSVKGRFTISRDNSKNTLYLQMNSPRAEDTAVYYCARHWNDYSNGMNVWGQGTTVTVSS VL: QSVLTQPPSASGTPGQRVTISCSGSTSNVGDRYVYWYQQLPGTAPKLLIYLDDQRPSGVPDRFSGSKSGTSASLAISGLQSEDEADYYCASWDASLNGWVFGGGTKLTVL
8	–	124000	40633p1.2.E1 scFv-Fc (scFv, V domains shown, Tested as scFv-Fc supernatant) VH: EVQLLESGRGLVQPGGSLRLSCAASGFTVSYYGMSWVRQAPGKGLEWVSVIKQDGSEEYYADSVKGRFTISRDNSKNTLYLQMNSLRAEDTAVYYCARHWNDYSNGMNVWGQGTTVTVSS VL: QSVLTQPPSASGTPGQRVTISCSGSTSNVGDRYVYWYQQLPGTAPKLLIYLDDQRPSGVPDRFSGSKSGTSASLAISGLQSEDEADYYCASWDASLNGWVFGGGTKLTVL
20.7	–	33500	40633p1.2.C3 scFv-Fc (scFv, V domains shown, Tested as scFv-Fc supernatant) VH: EVQLLESGGGLVQPGGSLRLSCAASGFTVSYYGMSWVRQAPGKGLEWVSAIKQDGSEKYYADSVKGRFTISRDNSKNTLYLQMNSLRAEDTAVYYCARHWNDYSNAMNVWEQGTTVTVSS VL: QSVLTQPPSASGTPGQRVTISCSGSNSNVGGNYVSWYQQLPGTAPKLLIYRNSQRPSGVPDRFSGSKSGTSASLAISGLQSEDEAVYYCASWDASLNGWVFGGGTKLTVL
142	–	6880	40633p1.1.E6 scFv-Fc (scFv, V domains shown) VH: EVQLLESGGGLVQPGGSLRLSCAASGLTFSSYAMNWVRQAPGKGLEWVAGIGGSGSSTYHTDSVKGRFTISRDNSKNTLYLQMSSLRAEDAAVYYCAKEDHWSGGMDVWGQGTTVTVSS VL: not shown
17.4	0.01	714000	40633p1.1.A11 scFv-Fc (scFv, V domains shown) VH: EVQLLESGGDLVQPGGSLRLSCAASGFTFNTYWMNWVRQAPGKGLEWVAGINSKGGVTYYADSVKGRFTISRDNSKNTLYLQMNSLRAEDTAVYYCADWNDYDIMDVWGQGTTVTVSS VL: QSVLTQPPSASGTPGQTITISCSGSSSNVGRRTVNWYQQLPGTAPKLLIYTNAQRPSGVPDRFSGSKSGTSASLAISGLQSEDEADYYCATWDDSLNAWVFGGGTKLTVL
3.95	–	523000	40633p1.1.E4 scFv-Fc (scFv, V domains shown, Tested as scFv-Fc supernatant) VH: EVQLLESGGGLVQPGGSLRLSCAASGFTFSSYWMSWVRQAPGKGLEWVSGISSSGSATYYADSVKGRFTISRDNSKNTLYLQMNSLRAEDTAVYYCARWNDYDIMDVWGQGTTVTVSS VL: not shown
6.42	–	360000	40633p1.1.B3 scFv-Fc (scFv, V domains shown, Tested as scFv-Fc supernatant) VH: EVQLLESGGGLVQPGGSLRLSCAASGFTVSYYGMSWVRQAPGKGLEWVSAIKQDGSEKYYADSVKGRFTISRDNSKNTLYLQMNSLRAEDTAVYYCARHWNDYSNAMNVWGQGTTVTVSS VL: QSVLTQPPSASGTPGQRVTISCSGSTSNIGRESVYWYQQLPGTAPKLLIYTIDQRPSGVPDRFSGSKSGTSASLAISGLQSEDEADYYCGTWDDSLNAWVFGGGTKLTVL
1.03	–	481000	40633p1.1.C11 scFv-Fc (scFv, V domains shown, Tested as scFv-Fc supernatant) VH: EVQLLESGGGLVQPGGSLRLSCAASGFTFSSYWMSWVRQAPGKGLEWVAGINRNGGTTYYADSVKGRFTISRDNSKNTLYLQMNSLRAEDTAVYYCARWNDYDIMDVWGQGTTVTVSS VL: not shown
5.69	–	402000	40633p1.2.D7 scFv-Fc (scFv, V domains shown, Tested as scFv-Fc supernatant) VH: EVQLLESGGSLVQPGGSLRLSCAASGFTFSSYWMSWVRQAPGKGLEWVSGISSSGSATYYADSVKGRFTISRDNSKNTLYLQMNSLRAEDTAVYYCARWNDYDIMDVWGQGTTVTVSS VL: not shown
298	0.03	108000	40633p1.1.F2 scFv-Fc (scFv, V domains shown, Tested as scFv-Fc supernatant) VH: EVQLLESGGGLVQPGGSLRLSCVASGLTFNGFAMTWVRQAPGKGLEWVSGISWNSGSIYYADSVKGRFTISRDNSKNTVYLQMSSLRAEDTAIYYCAKNWNDYYNSMDVWGQGTTVTVSS VL: QSVLTQPPSASGTPGQRVTISCSGSRSNIGTKYVYWYQQFPGTAPKLLIYTTDRRPSGVPDRFSGSKSGTSASLAISGLQSEDEADYYCSAWDDRLNAWVFGGGTKLTVL
13.2	–	277000	40633p1.1.D11 scFv-Fc (scFv, V domains shown, Tested as scFv-Fc supernatant) VH: EVQLLESGGGLVQPGGSLRLSCAASGFTFRSYAMSWVRQAPGKGLEWVAYIGSSGGTTYYADSVKGRFTISRDNSKNTLYLQMNSLRAEDTAVYYCVKESYYYMDVWGQGTTVTVSS VL: QSVLTQPPSASGTPGQRVTISCSATISNIDINRVSWYQQLPGTAPKLLIFNSQRPSGVPDRFSGSKSGTSASLAISGLQSEDEADYYCATWDDSLNSWVFGGGTKLTVL
212	0.02	108000	40579p1.F7 scFv-Fc (scFv, V domains shown, Tested as scFv-Fc supernatant) VH: EVQLLESGGGLVQPGGSLRLSCAASGFTFSDYYMSWVRQAPGKGLEWVSGISISYGGNAYYADSVKGRFTVSRDNSKNTLYLQMNSLRAEDTAVYYCGRDRSPYQYRSMDVWGQGTTVTVSS VL: EIVLTQSPGTLSLSPGERATLTCRASQSVGDFLAWYQQKPGQAPRLLIYGASTRAAGIPARFRGSGSGTDFTLTISSLQSEDFAVYYCQQYKNWPPLTFGGGTKVEIK
7.72	–	252000	40579p1.H6 scFv-Fc (scFv, V domains shown) VH: EVQLLESGGGLVQPGGSLRLSCAASGFTVNNAWMSWVRQAPGKGLEWVSAISYGGSIYYADSVKGRFTISRDNSKNTLYLQMNSLRAEDTAVYYCAKHRSTTYNGMDVWGQGTTVTVSS VL: EIVLTQSPGTLSLSPGERATLSCRASQSVGSFLAWYQQKPGQAPRLLIYGANTRAAGIPDRFRGSGNGTDFTLTISSLQSEDFAVYYCQQYYDWPPLTFGGGTKVEIK
6.75	–	260000	40579p1.G1 scFv-Fc (scFv, V domains shown, Tested as scFv-Fc supernatant) VH: EVQLLESGGGLVQPGGSLRLSCAASGFNFSSYWMSWVRQAPGKGLEWVSGISISYGGNAYYADSVKGRFTVSRDNSKNTLYLQMNSLRAEDTAVYYCGRDRSPYQYRSMDVWGQGTTVTVSS VL: EIVLTQSPGTLSLSPGERATLSCRASQSIRSDLAWYQQKPGQAPRLLIYGASSRATGIPARFSGSGSGTEFTLTISSLQSEDFAVYYCQQYNNWPPLTFGGGTKVEIK
5.57	–	281000	40579p1.H7 scFv-Fc (scFv, V domains shown, Tested as scFv-Fc supernatant) VH: EVQLLESGGDLVQPGGSLRLSCAASGFNFSSYWMSWVRQAPGKGLEWVSGISISYGGNAYYADSVKGRFTVSRDNSKNTLYLQMNSLRAEDTAVYYCGRDRSPYQYRSMDVWGQGTTVTVSS VL: EIVLTQSPGTLSLSPGERATLSCRASQSIRSDLAWYQQKPGQAPRLLIYGASSRATGIPARFSGSGSGTEFTLTISSLQSEDFAVYYCQQYNNWPPLTFGGGTKVEIK
1	–	166000	40633p1.1.A6 scFv-Fc (scFv, V domains shown) VH: EVQLLESGGGLVQPGGSLRLSCAASGFSFSNYDMSWVRQAPGKGLEWVAGIRSGSRTYYADSVKGRFTISRDNSKNTLYLQMNSLRAEDTATYYCGRYFNMDVWGQGTTVTVSS VL: QSVLTQPPSASGTPGQRVTISCSGSTFNIGTNLVHWYQQLPGTAPKLLIYLTDRRPSGVPDRFSGSKSGTSASLAISGLQSEDEANYYCATWDDSLNSFLFGGGTKLTVL
